Source: the nanobody polyreactivity screen of Harvey et al. (2022)

test: yeast display, Sf9 membrane polyspecificity reagent, FACS + sequencing; frameworks hold sequencing errors
Method in brief: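 In a synthetic yeast display library (Saccharomyces cerevisiae BJ5465), nanobody expression was induced with galactose for 36–48 hours. FACS gates were set low and high (top ~1%) using anti-HA fluorescence for expression and streptavidin fluorescence for binding of the Sf9 membrane reagent. Each polyreactivity label is drawn from the gate of origin.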

Row | Sequence | polyreactivity (PSR sort gate)
1 | QVQLVESGGGLVQAGGSLRLSCAASGSIFYGYAMGWYIQAPGKERELVAAISGNGGSTYFADSVKGRFTISRDNAKNTVYLQMNSLKTEDTAVYYCAVEVYHYGYEYDYWGQGTQVTVSS | high polyreactivity
2 | QVQLVESGGGLVQAGGSLRLSCAASGSIFYGYAMGWYRPAPGKERELVAAISSGGRTYYADSVKGRFTISRDNAKNTVYLQMNSLKPEDTAVYHCAASYWKPHRESGYDYWGQGTQVTVSS | high polyreactivity
3 | QVQLVESGGGLVQAGGSLRLSCAASGSIFYGYAMGWYRQAPGKERELVAAISWSGTSTYYADSVKGRFTISRDNAKNTVYLQMNSLKPEDTAVYYCAADQFQGNSGFEYWGQGTQVTVSS | low polyreactivity
4 | QVQLVESGGGLVQAGGSLRLSCAASGSIFYGYAMGWYRQAPGKERELVAAITGGGSTNYADSVKGRFTISRDNAKNTVYLQMNSLKPEDTAVYYCAAAPVSLPDYGYWGQGTQVTVSS | low polyreactivity
5 | QVQLVESGGGLVQAGGSLRLSCAASGSIFYGYAMGWYRQAPGKERELVAAITWSGGSTYYADSVKGRFTISRDNAKNTVYLQINSLKPEDTAVYYCNAVSTRFRVRTSDYWGQGTQVTVSS | high polyreactivity
6 | QVQLVESGGGLVQAGGSLRLSCAASGSIFYGYAMGWYRQAPGKERELVATITSGDSTNYADSVKGRFTISRDNAKNTVYLQMNSLKPEDTAVYYCAADPAHYVFWYGRYGYDYWGQGTQVTVSS | low polyreactivity
7 | QVQLVESGGGLVQAGGSLRLSCAASGSIFYHNAMGWYRQAPGKERELVAAITSGGSTHYADSVKGRFTISRDNAKNTVYLQMNSLKPEDTAVYYCNARDRRRTNLLDYWGQGTQVTVSS | low polyreactivity
8 | QVQLVESGGGLVQAGGSLRLSCAASGSIFYHNAMGWYRQAPGKERELVATISWRSASTYYADSVKGRFRISRDNAKNTVYLQMNSLKPEDTAVYYCAAKLQYRQYYYRYGYDYWGQGTQVTVSS | high polyreactivity
9 | QVQLVESGGGLVQAGGSLRLSCAASGSIFYHYAMGWYRQAPGKEREFVAAITRRGTSTYYADSVKGRFTISRDNAKNTVYLQMNSLKPEDTAVYYCAARYGPNMDYCGQGTQVTVSS | high polyreactivity
10 | QVQLVESGGGLVQAGGSLRLSCAASGSIFYHYAMGWYRQAPGKEWELVAAITITGGSTYYADSVKGRFTISRDNAKNTVYLQMNSLKPEDTAVYYCAAEGWYGYQWFDYWGQGTQVTVSS | high polyreactivity
11 | QVQLVESGGGLVQAGGSLRLSCAASGSIFYINAMGWYRQAPGKERELVASISGGGGSTYYADSVKGRFTISRDNAKNTVYLQMNSLKPEDTAVYYCAARYRVYYLAGYEYWGQGTQVTVSS | high polyreactivity
12 | QVQLVESGGGLVQAGGSLRLSCAASGSIFYISAMGWYRQAPGKERELVAAISWIDDTTYYADSVKGRFTISRDNAKNTVYLQMNSLKPEDTAVYYCAAELENVYAGGQMDYWGQGTQVTVSS | high polyreactivity
13 | QVQLVESGGGLVQAGGSLRLSCAASGSIFYIYAMGWYRQAPGKERELVASITFSGDITYYADSVKGRFTISRDNAKNTVYLQMNSLKPEDTAVYYCAADYHEQSYAVTYDYWGQGTQVTVSS | low polyreactivity
14 | QVQLVESGGGLVQAGGSLRLSCAASGSIFYLNAMGWYRQAPGKERELVAAISKRGSRTYYADSVKGRFTISRDNAKNTVYLQMNSLKPEDTAVYYCNALDTPGYNTEPARQYDHWGQGTQVTVSS | high polyreactivity
15 | QVQLVESGGGLVQAGGSLRLSCAASGSIFYLYAMGWYRQAPGKERELVADINWNGGTYYADSVKGRFTISRDNAKNTVYLQMNSLKPEDTAVYYCAAYYYPYEYDYWGQGTQVTVSS | high polyreactivity
16 | QVQLVESGGGLVQAGGSLRLSCAASGSIFYLYAMGWYRQAPGKERELVAGITTSGGTTYYADSVKGRFTISRDNAKNTVYLQMNSLKPEDTAVYYCNAAVGYYSLPYDYWGQGTQVTVSS | low polyreactivity
17 | QVQLVESGGGLVQAGGSLRLSCAASGSIFYLYAMGWYRQAPGKERELVATITASGGSTNYADSVKGRFTISRDNAKNTVYLQMNSLKPEDTAVYYCAAEYYYLVYEYDYWGQGTQVTVSS | high polyreactivity
18 | QVQLVESGGGLVQAGGSLRLSCAASGSIFYNALGWYRQAPGKERELVASISWSGGTSTYYADSVKGLFTISRDNAKNTVYLQMNSMKPEDTAVYYCAKASRYSSYWMYYWGQGTQVTVSS | high polyreactivity
19 | QVQLVESGGGLVQAGGSLRLSCAASGSIFYNAMGGYRQAPGKERELVAGISSGTSTYYADSVKGRFTISRDNAKNTVYLLMNSLKPEDTEVYYCATRWSYRYGYWGQGTQVTVSS | high polyreactivity
20 | QVQLVESGGGLVQAGGSLRLSCAASGSIFYNYGMGWYRQAAGKEGELVAAIRASGDSTYYADSVKGRFTISRDNAKNTLYLQINSQKPEDTAVYYCAARPNQSYNGLYYYWGQGTQVTVSS | low polyreactivity
21 | QVQLVESGGGLVQAGGSLRLSCAASGSIFYNYTMGWSRQAPGKERELVAAISSSGGSTYYADSVKGRFSISRDNAKITVYLQMNSLTPEDTAVYFCAARSPGYYRIVWYDYWGLGTQVTVSS | high polyreactivity
22 | QVQLVESGGGLVQAGGSLRLSCAASGSIFYPYAMGWYRKAPGKERELVAAIRRSGVDTYYADSVKGRFTISRDYAKNTYNLQMISLKPEDTAVYYCAADPYWFFAHYDSWGQGTQVTVSS | low polyreactivity

Row | Sequence | polyreactivity (PSR sort gate)
23 | QVQLVESGGGLVQAGGSLRLSCAASGSIFYPYAMGWYRPAPGTERELVASISWSGGSTRYADSVKGRFTISRDNAKNSVYLQMNSLKPEDTAVYYCNAGYRTRHISLYDYWGQGTQVTVSS | high polyreactivity
24 | QVQLVESGGGLVQAGGSLRLSCAASGSIFYPYAMGWYRQAPGKERELVAAISSGGRTYYADSVKGRFTISRDNAKNTVYLQMNSLKPEDTAVFYCAARPKAYGRPPGYYWGQGTQVTVSS | high polyreactivity
25 | QVQLVESGGGLVQAGGSLRLSCAASGSIFYPYAMGWYRQAPGKERELVAAISSSGGSTYYADSVKGRFTISRDNAKNTVYLQMNSLKPEDTAVYYCAADAATGIFDRLNYWGQGTQVTVSS | high polyreactivity
26 | QVQLVESGGGLVQAGGSLRLSCAASGSIFYPYAMGWYRQAPGKERELVAAITWSGGETYYADSVKGRFTISRDNAKNTVYLQMNSLKPEDTAVYYCAAEWNVSPYDYWGQGTQVTVSS | low polyreactivity
27 | QVQLVESGGGLVQAGGSLRLSCAASGSIFYPYAMGWYRQAPGKERELVASITINDGSTYYADSVKGRFTISRDNAKNTVYLQMNSLKTEDTSVYYCNVEPVPGFGSEYEYWGQGTQVTVSS | low polyreactivity
28 | QVQLVESGGGLVQAGGSLRLSCAASGSIFYPYTMGWYRQAPGKERELVAAISGGCRTYYADSVKGRFTISRDNAKNTVYLQMNSLKPEDTAVYYCAARYGYRWLVGKYEYWGQGTQVTVSS | high polyreactivity
29 | QVQLVESGGGLVQAGGSLRLSCAASGSIFYQNAMGWYRHAPGKERELVAAITSDGSTYYADSVKGRFTISRDNAKKTVYLQMNSLKPEDTAVYYCAAEDYGHRYDYWGQGTQVTVSS | low polyreactivity
30 | QVQLVESGGGLVQAGGSLRLSCAASGSIFYQNAMGWYRQAPGKERELVAAITSDGSTYYADSVKGRFTISRDNAKNTVYLQMNSLKPEDNAVYYCAAEYYVHRYDYWGQGTQVTVSS | low polyreactivity
31 | QVQLVESGGGLVQAGGSLRLSCAASGSIFYRNALGWYRQAPGKERELVAAISSDGSTNYADSVKGRFTISRDNAKNTVYLQMNSLKPEDTAVYYCAAPWTQILDYWGQGTQVTVSS | low polyreactivity
32 | QVQLVESGGGLVQAGGSLRLSCAASGSIFYRNAMGWSRQAPGKERELVAAISASGGSTYYADSVKGRFTISRDNAKNTVYLQMNSLKPEDTAVYYCAVEYRKSRSYAPMGYWGQGTQVTVSS | high polyreactivity
33 | QVQLVESGGGLVQAGGSLRLSCAASGSIFYRNAMGWYRQAPGKERELVAAISSDGSTNYADSVKGRFTISRDNAKNTVYLQMNSLKPEDTAVYDCAGLQKRRSYWRPFYWGQGTQVTVSS | low polyreactivity
34 | QVQLVESGGGLVQAGGSLRLSCAASGSIFYRNAMGWYRQAPGKERELVAAISSDGSTNYADSVKGRFTISRDNAKNTVYLQMNSLKPEDTAVYYCAAPWTHILDYWGQGTQVTVSS | low polyreactivity
35 | QVQLVESGGGLVQAGGSLRLSCAASGSIFYRNAMGWYRQAPGKERELVAAISSDGSTNYADSVTGRFTISRDNAKNTVYLQMNSLKPEDTAVYYCAAPWTQILDYWGQGTQVTVSS | low polyreactivity
36 | QVQLVESGGGLVQAGGSLRLSCAASGSIFYRNAMGWYRQAPGKERELVAAISSRGTRTYYADSVKGRFTISRDNAKNTVYLQMNSLKPEDTAVYYCAAADYRFYNGPYSRRWLYGYWGQGTQVTVSS | high polyreactivity
37 | QVQLVESGGGLVQAGGSLRLSCAASGSIFYRNAMGWYRQAPGKERELVAAISSSVSSTYYADSVKGRFTISRDNAKNTVYLQMNSLKPEDTAVYYCAARRVQRGGDYVYRYLYDYWGQGTQVTVSS | low polyreactivity
38 | QVQLVESGGGLVQAGGSLRLSCAASGSIFYRNAMGWYRQAPGKERELVAAITRSDGRTYYADSVKGRFTISRDNAKNTVYLLMNSLKPEDTAVYYCAADYSFGYRDFYYWGQGTQVTVSS | low polyreactivity
39 | QVQLVESGGGLVQAGGSLRLSCAASGSIFYRNAMGWYRQTPGKERELVAAISSDGSTNYADSVKGRFTFSLDNAKNTVYLQMNRLNPEYTAVYYCAAPWTQFLDYWGQGTQVTVSS | low polyreactivity
40 | QVQLVESGGGLVQAGGSLRLSCAASGSIFYRNTMGWYRQAPGKERELVASINTGTGTYYADSVKGRFTISRDNAKNTVYLQMNSLKPEDTAVYYCNAKGWVWPFPSYYPYDSWGQGTQVTVSS | high polyreactivity
41 | QVQLVESGGGLVQAGGSLRLSCAASGSIFYRNVMGWYRQAPGKERELVAAISQRGGSTYYADSVKGRFTISRDNAKNTVYLQMNSLKPEDTAVYYCNAASRGAGTSIWSWYDHWGQGTQVTVSS | low polyreactivity
42 | QVQLVESGGGLVQAGGSLRLSCAASGSIFYRNVMGWYRQAPGKERELVAAISRSGGSTYYADSVKGRFTISRDNAKNTVYLQMNSLQPEDTAVYYCAGRYSPFYYWGQGTQVTVSS | high polyreactivity
43 | QVQLVESGGGLVQAGGSLRLSCAASGSIFYRYALGWYRQAPGKEREFVAGITTRGGSTYYADSVKGRFTISRDNAKNTVYFQMNCLKPEDTAVYDCAASSRVWPNFGYWGQGTQVTVSS | high polyreactivity
